# Data taken from article PMC3295763 (PLoS ONE, 2012).
# Target: S-layer protein EA1 (Bacillus anthracis Sterne, UniProt P94217)
# Assay: SPR; […] (5 µg/ml in 10 mM sodium acetate pH 4.0); […], dissociation 10 min; […]
# Settings: both partners purified
Binder,Kd [nM],koff [s⁻¹],kon [M⁻¹ s⁻¹]
"sdAb B12 (VHH, source: E. coli Rosetta, periplasmic (pECAN45), purified (IMAC, Superdex 75)) VHH: DVQLQASGGGLAQPGGSLRLSCVASGSVSRLSRMGWYRQAPGKQRELVAYIWHDGDNSYMDSVKGRFTISRDNARDTAYLQMNSLKPEDTAVYYCNYYRVGSGDSWGQGIQVIVSS",6.18,0.0015,242000
"sdAb C7 (VHH, source: E. coli Rosetta, periplasmic (pECAN45), purified (IMAC, Superdex 75)) VHH: EVQLQASGGGLVQPGGSLNLSCAASGEILSFNSMGWYRQAPGKQCELVAVILSGFSPNYADSVKGRFTISRDGAKNTVFLRMNRLKPEDTADYYCAARFYGAIRDEQSVNYWGQGTRVTVSS",1.57,0.000248,158000
"sdAb B2 (VHH, source: E. coli Rosetta, periplasmic (pECAN45), purified (IMAC, Superdex 75)) VHH: EVQLQASGGGLVQAGGSLRLSCAASGHINIHYAMGWFRRAPGKEREFVAAVTWSGASTYYADSVKGRFTISRDNGGNTMFLQLDSLKPEDTATYYCAAQGALGRLTSASGYDYWGQGTQVTVSS",6.17,0.00037,60000
"sdAb A1 (VHH, source: E. coli Rosetta, periplasmic (pECAN45), purified (IMAC, Superdex 75)) VHH: DVQLQASGGGLVQAGGSLELSCVVVGESIIDYQMAWFRQMVGREREFVAAITGDSHYSDYSASASGRFTISRDNAKKTVSLQMNHLKPEDTALYYCAARKGFGINRLSTAFDYWGHGTQVTVSS",0.305,0.000233,766000
"sdAb G10 (VHH, source: E. coli Rosetta, periplasmic (pECAN45), purified (IMAC, Superdex 75)) VHH: DVQLQASGGGLVQPGGSLKLSCVASGSTFSPDMMRWYRQAPGKQRDLVAWISTSGFTMYADSVKGRFTISRDNAKNTVYLQMNSLKPEDAAVYYCNANRFSGPDYWGQGMQVSVSS",2.04,0.000166,81100
